What was measured:
[1] = molecular target: T1, Ac-PLG˜LRA-Ahxh-Hynic (not fully specified)
T1 chain: PLGLRA

[2] = molecular target: T2, Ac-POG˜Hphe-LA-Ahxh-Hynic
T2 chain: PXGXLA

[3] = molecular target: T3, Ac-P-DArg-R˜LTA-Ahxh-Hynic (not fully specified)
T3 chain: PRRLTA

[4] = molecular target: T4, Ac-PLG˜LYT-Ahxh-Hynic (not fully specified)
T4 chain: PLGLYT

[5] = molecular target: T5, Ac-Hpro-Cit-G˜Hphe-TA-Ahxh-Hynic (not fully specified)
T5 chain: XXGXTA

[6] = molecular target: T6, Ac-PRG˜LLT-Ahxh-Hynic
T6 chain: PRGLLT

[7] = molecular target: T7, Ac-P-Cha-G˜Hphe-Cit-L-Ahxh-Ac[C14] (not fully specified)
T7 chain: PXGXXL

[8] = molecular target: T8, Ac-P-Cit-G-Hphe-LA-Hynic
T8 chain: PXGXLA

[9] = molecular target: T9, Ac-VRW˜LLA-Ahxh-Hynic
T9 chain: VRWLLA

[10] = molecular target: T10, Ac-PLG˜Hphe-YL-Hynic
T10 chain: PLGXYL

[11] = molecular target: T11, Ac-PLG˜Hphe-OLEE-Ahx-Hynic
T11 chain: PLGXXLEE

[12] = molecular target: T12, Ac-PRQ˜IT-Ahxh-Hynic
T12 chain: PRQIT

[13] = molecular target: T13, Ac-P-Cit-G˜Tle-LA-Ahxh-Hynic (not fully specified)
T13 chain: PXGXLA

[14] = molecular target: T14, Hynic-ff-Ahx-PLG˜Hphe-OLEE-OH
T14 chain: FFXPLGXXLEE

[15] = molecular target: T15, Ac-PLG˜Hphe-KL-Ahxh-Hynic
T15 chain: PLGXKL

[16] = molecular target: T16, Hynic-fff-Ahx-PLG˜Hphe-OLEE-OH
T16 chain: FFFXPLGXXLEE

[17] = molecular target: T17, Ac-PLG˜L-Cha-Ahxh-Ac[C14] (not fully specified)
T17 chain: PLGLX

[18] = molecular target: T18, Ac-PLG˜LL-Ahxh-Hynic
T18 chain: PLGLL

[19] = molecular target: T19, Ac-NGlu-POG˜Hphe-L-Hynic (not fully specified)
T19 chain: XPXGXL

[20] = molecular target: T20, H-DArg-P-Cit-G˜cLeu-LA-Ahxh-Hynic (not fully specified)
T20 chain: RPXGXLA

[21] = molecular target: T21, Ac-P-Cit-Cit-LTA-Ahxh-Hynic
T21 chain: PXXLTA

[22] = molecular target: T22, Ac-PLG˜Hphe-Cit-L-Ahxh-Hynic (not fully specified)
T22 chain: PLGXXL

[23] = molecular target: T23, Ac-PLG˜LR-Ahxh-Hynic (not fully specified)
T23 chain: PLGLR

[24] = molecular target: T24, Ac-P-Cit-G˜Hphe-LA-Ahxh-Ac[C14] (not fully specified)
T24 chain: PXGXLA

[25] = molecular target: T25, Ac-PL-NLys˜Ahp-YL-Ahxh-Ac[C14] (not fully specified)
T25 chain: PLXXYL

[26] = molecular target: T26, Ac-PLG˜LYQ-Ahxh-Ac[C14] (not fully specified)
T26 chain: PLGLYQ

[27] = molecular target: T27, Ac-P-Cit-G˜Chg-LA-Ahxh-Hynic (not fully specified)
T27 chain: PXGXLA

[28] = molecular target: T28, Ac-PLG˜LRL-Ahxh-Hynic (not fully specified)
T28 chain: PLGLRL

[29] = molecular target: T29, Ac-POG˜Hphe-Smc-T-Ahxh-Hynic
T29 chain: PXGXXT

[30] = molecular target: T30, Ac-PLG˜LWA-Ahxh-Ac[C14] (not fully specified)
T30 chain: PLGLWA

[31] = molecular target: T31, Ac-DArg-P-Aib-G˜Hphe-LA-Ahxh-Hynic (not fully specified)
T31 chain: RPXGXLA

[32] = molecular target: T32, Ac-PL-NLys˜LL-Ambh-Ac[C14] (not fully specified)
T32 chain: PLXLL

[33] = molecular target: T33, Ac-PLG˜Ahp-OL-Ahxh-Ac[C14] (not fully specified)
T33 chain: PLGXXL

[34] = molecular target: T34, Ac-DAla-PRG˜Ile-LA-Ahxh-Hynic (not fully specified)
T34 chain: APRGILA

[35] = molecular target: T35, Ac-P-Cit-Abu˜LTA-Ahxh-Hynic (not fully specified)
T35 chain: PXXLTA

[36] = molecular target: T36, Ac-PHG˜Hphe-L-Ahxh-Hynic (not fully specified)
T36 chain: PHGXL

[37] = molecular target: T37, Ac-PLG˜Hphe-RLA-Ahxh-Hynic
T37 chain: PLGXRLA

[38] = molecular target: T38, Ac-NLys-PLG˜Hphe-RLA-Ahxh-Hynic (not fully specified)
T38 chain: XPLGXRLA

[39] = molecular target: T39, Ac-P-NLeu-G˜LL-Ahxh-Ac[C14] (not fully specified)
T39 chain: PXGLL

[40] = molecular target: T40, Ac-P-DLeu-G˜LL-Ahxh-Hynic (not fully specified)
T40 chain: PLGLL

[41] = molecular target: T41, Ac-P-Cit-G˜S(OBn)-LA-Ahxh-Hynic (not fully specified)
T41 chain: PXGSLA

[42] = molecular target: T42, Ac-PR-Cit˜LSA-Ahxh-Hynic
T42 chain: PRXLSA

[43] = molecular target: T43, Ac-P-Cit-Aib˜Hphe-LA-Ahxh-Hynic (not fully specified)
T43 chain: PXXXLA

[44] = molecular target: T44, Ac-P-Cit-G˜Hphe-LA-Ahxh-Hynic (not fully specified)
T44 chain: PXGXLA

[45] = molecular target: T45, Ac-PLG˜LAL-Ahxh-Hynic
T45 chain: PLGLAL

[46] = molecular target: T46, Ac-PLG˜LL-Ambh-Hynic
T46 chain: PLGLL

[47] = molecular target: T47, Ac-PLG-Hphe-OL-Ahxh-Ac[C14]
T47 chain: PLGXXL

[48] = molecular target: T48, Ac-PL-NLys-LL-dLeu-Ahxh-Ac[C14]
T48 chain: PLXLLL

[49] = molecular target: T49, Ac-POG˜Hphe-L-Nle-Ahxh-Hynic
T49 chain: PXGXLX

[50] = molecular target: T50, Ac-POG˜Hphe-LTR-Ahxh-Ac[C14]
T50 chain: PXGXLTR

[51] = molecular target: T51, Ac-PLG˜Pabu-Cit-L-Ahxh-Ac[C14] (not fully specified)
T51 chain: PLGXXL

B1: MMP-2 (protein)
chain: APSPIIKFPGDVAPKTDKELAVQYLNTFYGCPKESCNLFVLKDTLKKMQKFFGLPQTGDLDQNTIETMRKPRCGNPDVANYNFFPRKPKWDKNQITYRIIGYTPDLDPETVDDAFARAFQVWSDVTPLRFSRIHDGEADIMINFGRWEHGDGYPFDGKDGLLAHAFAPGTGVGGDSHFDDDELWTLGEGQVVRVKYGNADGEYCKFPFLFNGKEYNSCTDTGRSDGFLWCSTTYNFEKDGKYGFCPHEALFTMGGNAEGQPCKFPFRFQGTSYDSCTTEGRTDGYRWCGTTEDYDRDKKYGFCPETAMSTVGGNSEGAPCVFPFTFLGNKYESCTSAGRSDGKMWCATTANYDDDRKWGFCPDQGYSLFLVAAHEFGHAMGLEHSQDPGALMAPIYTYTKNFRLSQDDIKGIQELYGASPDIDLGTGPTPTLGPVTPEICKQDIVFDGIAQIRGEIFFFKDRFIWRTVTPRDKPMGPLLVATFWPELPEKIDAVYEAPQEEKAVFFAGNEYWIYSASTLERGYPKPLTSLGLPPDVQRVDAAFNWSKNKKTYIFAGDKFWRYNEVKKKMDPGFPKLIADAWNAIPDNLDAVVDLQGGGHSYFFKGAYYLKLENQSLKSVKFGSIKSDWLGC
Kcat/Km [1]: > 500000 M⁻¹ s⁻¹
Kcat/Km [2]: > 500000 M⁻¹ s⁻¹
Kcat/Km [3]: 6880 M⁻¹ s⁻¹
Kcat/Km [4]: 186000 M⁻¹ s⁻¹
Kcat/Km [5]: 99600 M⁻¹ s⁻¹
Kcat/Km [6]: 98600 M⁻¹ s⁻¹
Kcat/Km [7]: 22600 M⁻¹ s⁻¹
Kcat/Km [8]: > 250000 M⁻¹ s⁻¹
Kcat/Km [9]: 43000 M⁻¹ s⁻¹
Kcat/Km [10]: 63200 M⁻¹ s⁻¹
Kcat/Km [11]: 8020 M⁻¹ s⁻¹
Kcat/Km [12]: 898 M⁻¹ s⁻¹
Kcat/Km [13]: 164 M⁻¹ s⁻¹
Kcat/Km [14]: 81600 M⁻¹ s⁻¹
Kcat/Km [15]: 78900 M⁻¹ s⁻¹
Kcat/Km [16]: 11600 M⁻¹ s⁻¹
Kcat/Km [17]: 359000 M⁻¹ s⁻¹
Kcat/Km [18]: > 250000 M⁻¹ s⁻¹
Kcat/Km [19]: 265 M⁻¹ s⁻¹
Kcat/Km [20]: 77 M⁻¹ s⁻¹
Kcat/Km [21]: 27300 M⁻¹ s⁻¹
Kcat/Km [22]: 157000 M⁻¹ s⁻¹
Kcat/Km [23]: 162000 M⁻¹ s⁻¹
Kcat/Km [24]: > 750000 M⁻¹ s⁻¹
Kcat/Km [25]: 0 M⁻¹ s⁻¹
Kcat/Km [26]: 439000 M⁻¹ s⁻¹
Kcat/Km [27]: 14400 M⁻¹ s⁻¹
Kcat/Km [28]: 182000 M⁻¹ s⁻¹
Kcat/Km [29]: > 500000 M⁻¹ s⁻¹
Kcat/Km [30]: 712000 M⁻¹ s⁻¹
Kcat/Km [31]: 18600 M⁻¹ s⁻¹
Kcat/Km [32]: 68600 M⁻¹ s⁻¹
Kcat/Km [33]: 4970 M⁻¹ s⁻¹
Kcat/Km [34]: 130000 M⁻¹ s⁻¹
Kcat/Km [35]: 55400 M⁻¹ s⁻¹
Kcat/Km [36]: 22100 M⁻¹ s⁻¹
Kcat/Km [37]: 64000 M⁻¹ s⁻¹
Kcat/Km [38]: 461000 M⁻¹ s⁻¹
Kcat/Km [39]: 0 M⁻¹ s⁻¹
Kcat/Km [40]: 5010 M⁻¹ s⁻¹
Kcat/Km [41]: > 250000 M⁻¹ s⁻¹
Kcat/Km [42]: 14700 M⁻¹ s⁻¹
Kcat/Km [43]: 275 M⁻¹ s⁻¹
Kcat/Km [44]: 827000 M⁻¹ s⁻¹
Kcat/Km [45]: 4380 M⁻¹ s⁻¹
Kcat/Km [46]: 33600 M⁻¹ s⁻¹
Kcat/Km [47]: 53800 M⁻¹ s⁻¹
Kcat/Km [48]: 0 M⁻¹ s⁻¹
Kcat/Km [49]: 401000 M⁻¹ s⁻¹
Kcat/Km [50]: > 500000 M⁻¹ s⁻¹
Kcat/Km [51]: 0 M⁻¹ s⁻¹

Reference: patent publication US20050106100
